Source: patent US11339434B2, “Methods for determining gene functions” (The Regents of the University of California, priority 2016, dated 2022)

Experiment: methylation of 6-mercaptopurine by peptide barcoded TPMT, LC-ESI-MS
Format: biochemical
Settings: 1 mM 6-mercaptopurine, 37° C., approximately 24 hours
Method: A polynucleotide encoding a peptide barcoded human thiopurine methyl transferase (TPMT) was incubated for 3 hours at 37° C. in the PURExpress® cell-free transcription/translation system (New England Biolabs, Inc. (Ipswich, Mass.)) according to the manufacturer's protocol in the presence (+protease) or the absence (−protease) of the WELQut-protease. […] After cell-free transcription/translation of peptide barcoded thiopurine methyl transferase (TPMT), 1 mM 6-mercaptopurine and phosphate buffered saline (0.1×) were added with (+cofactor) or without (−cofactor) 3.2 mM of the cofactor S-adenosyl-methionine (SAM). After incubation at 37° C., […] for approximately 24 hours (no shaking), methylation of 6-mercaptopurine and the presence of peptide barcode were determined by liquid chromatography-electrospray ionization-mass spectrometry (LC-ESI-MS).

B1: TPMT: peptide barcoded human thiopurine methyl transferase produced by cell-free transcription/translation (protein, UniProt P51580 1-245, looked up)
Thiopurine S-methyltransferase: MDGTRTSLDIEEYSDTEVQKNQVLTLEEWQDKWVNGKTAFHQEQGHQLLKKHLDTFLKGKSGLRVFFPLCGKAVEMKWFADRGHSVVGVEISELGIQEFFTEQNLSYSEEPITEIPGTKVFKSSSGNISLYCCSIFDLPRTNIGKFDMIWDRGALVAINPGDRKCYADTMFSLLGKKFQYLLCVLSYDPTKHPGPPFYVPHAEIERLFGKICNIRCLEKVDAFEERHKSWGIDCLFEKLYLLTEK
modifications: peptide barcode
notes: peptide barcoded human thiopurine methyl transferase produced by cell-free transcription/translation
methylated 6-mercaptopurine detected by mass spectrometry (absence of cofactor S-adenosyl-methionine, absence of WELQut-protease): no methylated 6-mercaptopurine nor peptide barcode were detected | methylated 6-mercaptopurine detected by mass spectrometry (absence of cofactor S-adenosyl-methionine, presence of WELQut-protease): no methylated 6-mercaptopurine was detected | methylated 6-mercaptopurine detected by mass spectrometry (presence of cofactor S-adenosyl-methionine (3.2 mM) and WELQut-protease): methylated 6-mercaptopurine and the peptide barcode were detected | methylated 6-mercaptopurine detected by mass spectrometry (presence of cofactor S-adenosyl-methionine (3.2 mM), absence of WELQut-protease): methylated 6-mercaptopurine was detected
